Biological target: bovine thrombin (bovine) (UniProt P00735)
Test: cell-based or functional assay

Row | rate of change in absorbance of the chromogenic substrate S2238 at 405 nm (thrombin-dependent activation of protein C on COS cells) [units/min] | Substance
1 | 0.23 | mutated murine thrombomodulin lacking the N-terminal lectin-like domain, expressed on COS cells (from UniProt P15306 17-577) (receptor)
2 | 0.21 | wild-type murine thrombomodulin expressed on COS cells (from UniProt P15306 17-577) (receptor)

Reference: patent publication US20050014220A1
